Assay results as given in patent US20220235344A1, “TRYPSIN VARIANTS WITH IMPROVED ENZYMATIC PROPERTIES” (BIOPHARMA TRANSLATIONSINSTITUT DESSAU FORSCHUNGS GMBH, priority 2018, published 2022).
Where “and” joins values, the source holds several entries; their conditions need not be identical. Identical values can stand only once.

Tests used:
[1] = tested on: anti-Her2-Fab-LC_RRKHAK(CF)/HC_YRAH (YRAH at heavy chain); assay: Orthogonal dual-modification of Her2-specific Fab-fragment, second step (heavy chain, DM1); format: biochemical
Excerpt: FIG. 6: Dual modification of a Fab-fragment by utilizing variation in substrate specificity of two Trypsiligase II variants. The HER2-specific Fab-fragment of Trastuzumab (anti-Her2-Fab-LC_RRKH/HC_YRAH, Heavy chain (SEQ ID NO: 2) and anti-Her2-Fab-LC_RRKH/HC_YRAH, Light chain (SEQ ID NO: 3)) was used and the respective recognition sequences genetically introduced. A) Trypsiligase II variant K7F11_H39Y/H59Y/K189D which recognizes the sequence RRKH was used in the first step for attachment of a carboxyfluorescein(CF)-bearing nucleophile. B) In the second step Trypsiligase II variant A2C8 which recognizes the sequence YRAH was used for modification with a nucleophile covalently bound to mertansine (DM1). Analysis by LC-MS. The amount of modified and unmodified Fab-fragment species for the first and second modification step are shown in MS spectrum A and B, respectively. […]
The second modification reaction of the heavy chain was performed in a solution containing 50 μM of the single modified aHer2-Fab-LC_RRKHAK(CF)/HC_YRAH, 1000 μM H-RKKAK(MCC-DM1)-OH, 5 μM A2C8, 100 mM HEPES/NaOH pH 7.8, 100 mM NaCl. […] The proportions of modified and unmodified Fab-fragment species for the first and second modification step were analyzed by LC-MS (see example 1). […] No modification upon the recognition sequence at the heavy chain had been monitored.

[2] = target: T1, H-RAHAK(DNP)-OH (acyl acceptor), acyl donor Bz-PGGYRAHAG-OH (Rattus norvegicus, UniProt P00763, D194K/K66E/Y45H/Y65H); assay: KM value of the nucleophilic peptide (acyl acceptor); format: biochemical; conditions: Zinc ions (100 μM): yes; 250 μM Bz-PGGYRAHAG-OH, varying H-RAHAK(DNP)-OH
T1 construct: made in house; host or cells: Pichia pastoris X-33
T1 sequence (P00763 24-246 Y45H/Y65H/K66E/D194K): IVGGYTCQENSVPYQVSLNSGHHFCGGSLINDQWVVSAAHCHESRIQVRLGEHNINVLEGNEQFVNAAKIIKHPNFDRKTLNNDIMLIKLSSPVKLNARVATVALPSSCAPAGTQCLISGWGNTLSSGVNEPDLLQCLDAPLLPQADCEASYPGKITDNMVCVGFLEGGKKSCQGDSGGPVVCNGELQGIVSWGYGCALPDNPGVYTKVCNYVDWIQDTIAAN
Description: For Trypsiligase II the measurements for KM values of the nucleophilic peptide (acyl acceptor) were carried out in the presence or absence of zinc ions due to its strong zinc ion dependency. In case of variant A2C8 measurements were carried out in the absence of zinc ions.
Transamidation reactions with Trypsiligase II and variant A2C8 were performed in a solution containing 250 μM of the acyl donor Bz-[…]-OH, varying concentrations of the acyl acceptor H-RAHAK(DNP)-OH (0-5000 μM for Trypsiligase II in the absence of zinc ions, 0-1500 μM for Trypsiligase II in the presence of zinc ions, 0-1000 μM for variant A2C8), 0.2-1.5 μM trypsin variant, 100 mM HEPES/NaOH pH 7.8, ±0.1 mM ZnCl2, 100 mM NaCl, 10 mM CaCl2 at 30° C. The reaction was started by the addition of enzyme. For kinetic evaluation of the reaction several aliquots of the reaction mixture were quenched with 25% (v/v) acetic acid at distinct time points within 30 minutes. The composition of the reaction mixture was analyzed by UPCL using method II (see example 1). UV absorption of the 2,4-Dinitrophenyl group (DNP), which is present in the acyl acceptor as well as in the aminolysis product, was detected at 360 nm. To determine the KM value of the nucleophilic peptide the initial rates for the aminolysis reaction were plotted against the corresponding acyl acceptor concentration and fitted to the Michaelis Menten equation. Measurements were performed as duplicates and errors were less than 5%.

B1: A2C8: Trypsiligase II + H40F, A55A, R96E, K97D, L99F, N143E, E151Y, S190V, Q192A, S214G, G219Q, A221T (protein)
chain: IVGGYTCQENSVPYQVSLNSGHFFCGGSLINDQWVVSAAHCHESRIQVRLGEHNINVLEGNEQFVNAAKIIKHPNFDEDTFNNDIMLIKLSSPVKLNARVATVALPSSCAPAGTQCLISGWGETLSSGVNYPDLLQCLDAPLLPQADCEASYPGKITDNMVCVGFLEGGKKVCAGDSGGPVVCNGELQGIVGWGYQCTLPDNPGVYTKVCNYVDWIQDTIAAN
[1]; estimated by mass spectrometry
  yield of dual labeled Fab-fragment: approximately 75%
[1]; mass spectrometry
  site of modification, second step: exclusively modification at the C-terminal end of the heavy chain

B2: Trypsiligase II (trypsin variant Y39H/Y59H/K60E/D189K) (protein)
chain: IVGGYTCQENSVPYQVSLNSGHHFCGGSLINDQWVVSAAHCHESRIQVRLGEHNINVLEGNEQFVNAAKIIKHPNFDRKTLNNDIMLIKLSSPVKLNARVATVALPSSCAPAGTQCLISGWGNTLSSGVNEPDLLQCLDAPLLPQADCEASYPGKITDNMVCVGFLEGGKKSCQGDSGGPVVCNGELQGIVSWGYGCALPDNPGVYTKVCNYVDWIQDTIAAN
[2]
  Km: 143 µM and 144 µM
